Assay: yeast display, Sf9 membrane polyspecificity reagent, FACS + sequencing; frameworks hold sequencing errors
Procedure, shortened: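 In a synthetic yeast display library (Saccharomyces cerevisiae BJ5465), nanobody expression was induced with galactose for 36–48 hours. FACS gates were set low and high (top ~1%) using anti-HA fluorescence for expression and streptavidin fluorescence for binding of the Sf9 membrane reagent. Each polyreactivity label is drawn from the gate of origin.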

Row | Sequence | polyreactivity (PSR sort gate)
1 | QVQLVESGGGLVHAGGSLRLSCAPSGSIFGPYAMGWYIQAPGKERELVAAIRSGGSTNYADSVKGRFTISRDNAKNTVYLQMNSLKPDDTSVYYWAGEYWGYPYDYWGQGTQVTVSS | low polyreactivity
2 | QVQLVESGGGLVHAGGSLRLSCASSGSIFIRNAMGWYRQAPGKERELVASISRSGASTRYADSVKGLFTISRDNAKNTVYLQMNSLNPEDTAVYYCNDVIRRYFVPSSYDYWGQGTQVTVSS | high polyreactivity
3 | QVQLVESGGGLVHAGGSLRLSCPADGSTFVLNAIGWYRQAPGKERQLVAGISYGTGSTYYADSVKGRFTISRDHAKNTVYLQMNSLKPEDTAVYYCATDFDGYSIGMYYWGQGNQVTVSS | low polyreactivity
4 | QVQLVESGGGLVHAGGSLRLSCSASGYTFAYNAMGWYRQAPGKERELVAAITSRAGSTHYADSVKGRFTISRDNAKNTVYLQMNSLKPEDTAVYYCAAKRYNRLRSYRYSDREDYWGQGTQVSVSS | high polyreactivity
5 | QVQLVESGGGLVHAGGSLRLSCSASRFIFDKNSMGWYIQAPGKERELVAAISYGDGRTYYADSVKGRFTISRDNAKNTVYLHMNSLKPEDTEVYYCNTDAKRYIRIYWGQGTQVTVSS | high polyreactivity
6 | QVQLVESGGGLVHAGGSLSLSCAASGSTFKDYAMGWYRQAPGKERELVAAISKGATRTYYADSVKGRFTISRDNAKITVYLQINSLKPEDTAVYYCAADRLKFRGEYDYWGQGSQVTVSS | high polyreactivity
7 | QVQLVESGGGLVHAGRSLLLSCAASGRTYRLDAMGWYRQSPGKERELVAAITRGGRTNYADSVKGRFTISRDNAKNTFYLQMNSLKPEDTAVYYCADRYVERPTDYYYWGQGTQVTVSS | low polyreactivity
8 | QVQLVESGGGLVHAGVSLRLSCAASGIIFAHYAKGWYRQAPGKERELVAAISSSGATTYYADSVKGRFTISRDNAKNTVYLQMNSLKPEDTAVYYCNTETYHVRRLFDYWGQGTQVTVSS | low polyreactivity
9 | QVQLVESGGGLVHGGGSLRLSCAASGSILHYNTMGWYRQAPGKEREFVASISYSGGSTYYADSVKGRFTISRDNAKNTVYLQMNSLKPEDTAVYYCATEGMDFWFIYYYWGQGTQVTVSS | low polyreactivity
10 | QVQLVESGGGLVHPGGSLRLSCDASGLILDGYAMGWYRQAPGKERELVAAITRSGGRTYYADSVKGRFTISRDNAKNTVNLQKNRQKPVDTAVYHSAALGWSGRYRYDYWGQGTQVTVSS | high polyreactivity
11 | QVQLVESGGGLVKAGGILSLSCAASGRTFAFYGMGSYRQAPGKERELVATIRGTGGSTYYADSVKGRFTISRDNAKNTVYLQMNSLKPEDTAVYYCAAVNRRYPRYDYWGLGTQVTVSS | high polyreactivity
12 | QVQLVESGGGLVKAGGSLRLICAAYGRIFALYAMGWYRHAPGKERELVAAINNGASTNYADSVKWRFTISRDNAKNTVYVQMNSLKPEDTAVYYCAVRAARSGQRFYSWGQGTQVTVSS | high polyreactivity
13 | QVQLVESGGGLVKAGGSLRLRCAASGITFRYNAMGWYRQAPGKERELVAAITSSGGRTYYADSVKGRFTISRDNAKNTVYLQMNSLKPEDTAVYYCAARTRYRKEYDYWGQGTQVTVSS | high polyreactivity
14 | QVQLVESGGGLVKAGGSLRLSCAASGFTFAYYAMGWYRQAPGKERELVAAISGSGGSTYYADSVKGRFTISRDNAKNTVYLQMNSLKPEDTAVYYCAAARRSTWSYSYYWGQGTQVTVSS | high polyreactivity
15 | QVQLVESGGGLVKAGGSLRLSCAASGFTFPQYAMGWYRQAPGKERELVAAISKRSVGTRYADSVKGRFTISRDNAKNTLYLQMNSLKPEDTAVYYCNKYGQVPGYFSLDYWGQGTQVTVSS | high polyreactivity
16 | QVQLVESGGGLVKAGGSLRLSCAASGFTYSTYAMGWYRQAPGKEREFVAAISRSGGSTYYADSVKGRFTISRDNAKNTVYLQMNSLKPEDTAVYYCAVRPYRSAGGSVTRGAYYYWGQGTQVTVSS | high polyreactivity
17 | QVQLVESGGGLVKAGGSLRLSCAASGITFYIYDMGWYRQAPGKERELVATISWSDGRTYYADSVKGRFTISRDNAKNTVYLQMNSLKPEDTAVYYCASDWWYYQFDYEYWGQGTQVTVSS | low polyreactivity
18 | QVQLVESGGGLVKAGGSLRLSCAASGLISWLYVMGWYRQAPGKERELVAAIRYSGGRTYYADSVKGRFTISRDNAKNTVYLQMHSMKPEDTAVYYCNALPWALYDSTSIYYYWGQGTQVTVSS | low polyreactivity
19 | QVQLVESGGGLVKAGGSLRLSCAASGRIFRYYVMGWYRQAPGKERELVASISWRGTSTYYADSVKGRFTISRDNAKNTVYLQMNSLKPEDTAVYYCNAARPGKNYDSWGQGTQVTVSS | high polyreactivity
20 | QVQLVESGGGLVKAGGSLRLSCAASGRIFSRNAMGWYRQAPGKERELVAAITRRGGNTYYADSVKGRFTISRDNAKNTVYLQMNSLKPEDTAVYYCATRRYYQRWSPGYDYWGQGTQVTVSS | high polyreactivity
21 | QVQLVESGGGLVKAGGSLRLSCAASGRIFWAYAMGWYRQAPGKERELVAAINSGGRTYYADSVKGRFTISRDNAKNTVYLQMNSLKPEDTAVYYCAAAGVYSSDYWGQGTQVTVSS | low polyreactivity
22 | QVQLVESGGGLVKAGGSLRLSCAASGRTFGSYAMGWYRLAPGTERELVAAITGSGAGTYYADSVKGRFTISRDNAKNTVYLQMNSLKPEDTSVYYCAARRPWQFYYWVQGTQVTVSS | high polyreactivity

Row | Sequence | polyreactivity (PSR sort gate)
23 | QVQLVESGGGLVKAGGSLRLSCAASGRTFGWYVMGWYRQAPGKEMELVAAISLRGGTTYYADSVKGRFTISRDNAKNTVYLQMNSLNPEDTAVYYCAIAGIRHVTCKFKGYHFGYWGQGTQVTVSS | low polyreactivity
24 | QVQLVESGGGLVKAGGSLRLSCAASGRTFGYNAMGWYRQAPGKEREFVAAISWSGGRTYYADSVKGRFTISRDNAKNTVYLQMNSLKPEDTAVYYCAAAAPHLSAKMDYWGQGTQVTVSS | low polyreactivity
25 | QVQLVESGGGLVKAGGSLRLSCAASGRTFLRNAMGWYRQAPGKERELVATITRGGSTYYADSVKGRFTISRDNAKNTVYLQMNSLKPEDTAVYYCAKDITGCFRRPDYGYWGQGTQVTVSS | low polyreactivity
26 | QVQLVESGGGLVKAGGSLRLSCAASGRTFQVYDMGWYRQAPGKERELVAGITRAGSTYYADSVKGRFTISRDNAKNSVYLQMNRLKPEDSAVYYCAASRWHGYNYWGQGTQVTVSS | high polyreactivity
27 | QVQLVESGGGLVKAGGSLRLSCAASGRTFRDNAMGWYIQAPGKERELVADIDIDSSTYYADSVKGRFTISRDNAKNTVYLQMNSLKPEDTAVYYCAATFTYLGYWYDYWGQCTQVTVSS | low polyreactivity
28 | QVQLVESGGGLVKAGGSLRLSCAASGSIFAFYAMGWYRPAPGKERELVAAINSGGGRTYYEDSVKGRFTISRDNAKYTVYLQMNSLKPEDTAVYYCAARTIHGSNRSYYWGQGTQVTVSS | high polyreactivity
29 | QVQLVESGGGLVKAGGSLRLSCAASGSIFRYYTMGWYRQAPGKEWELVAAINGSGGSTYYADSVKGRFTISRDTAKNTVYLQMNSLKPEDTAVYYCNRVTKEYGLRQYYYWGQGTQVTVSS | low polyreactivity
30 | QVQLVESGGGLVKAGGSLRLSCAASGSMFWSYAMGWYRQAPGKERELVAAISSGGSTNYADTVKGRFTISRDNAKNTVYLQMNSLKPEDTAVYYCSARFYTTCVRRKRYDYWGQGTQVNVSS | high polyreactivity
31 | QVQLVESGGGLVKAGGSLRLSCAASGSTFTYYAMGWYRQAPGKERELVARITWTGGRTYYADSVKGRFTISRGNAKNTVYLQMNSLKPEDTAVNYCNALPYFYETQYDYWGQGTQVTVSS | low polyreactivity
32 | QVQLVESGGGLVKAGGSLRLSCASSGYIFPFNAMGWYRQAPGKERELVAAITNGGRTYYADSVKGRFTISRDNAKNTVYLQMNSLKPDDTSVYYCAAGSKSDMDWGQGTQVTVSS | low polyreactivity
33 | QVQLVESGGGLVKAGGSLRLSCDASGRIFKYYAMGWYRPAPGKEWELVAAISSVGYTNYADSVKGRFTISRDNAKNTVYLQLNSLKPEDTAVYYCAAPYQHYDVNYDSWGQGTQVTVSS | low polyreactivity
34 | QVQLVESGGGLVKAGGSLRLSSAASGYNTNTYAMGWYRQAPGKERELVAAISGSGGSTYYADSVKGRFTMSRDNAKTTVYLQMNSLKPEDTAVYYCNVVVRYPSAYDYWGQGTQVTVSS | high polyreactivity
35 | QVQLVESGGGLVKAVGSLRLSCAPSGRISGVYAMGWYRQAPGKERELVAAISWSGGPTYYADSVKGRFTISRDNAKNTFYLEMTSLKPEDTAVYYCNGDTGFRSYLRVYWGQGTQVTVSS | low polyreactivity
36 | QVQLVESGGGLVKEGGSLRLSSAASGSTNRYYAMGLYRQAPGKERELVAGITTGGGRTYYADSEKGRFTISRDNAKYTVYLQMTSLKPEDTAVYYCAADRLSHYWYRISYDYWGQCTQVTVSS | high polyreactivity
37 | QVQLVESGGGLVKSGGSLRLSCAASGRIFYLYAMGWYRQAPGKERELVAAISRRGGGTSYADSVKGRFTISRDNAKNTVYFQMNSLKPEDTAVYYCNTAYSLGGYWGQGTQVTVSS | high polyreactivity
38 | QVQLVESGGGLVLAAGSLRLSCAASGFIFGSYAMGWYRQAPGKERELFAAISRSGGRTYYADSVKGRFTISRDNAKNTVYLQMNSLKPEDTAVYYCAAVHLLVYPTYDYWGQGTQVTVSS | high polyreactivity
39 | QVQLVESGGGLVLAGGRLRLSCAASGFTLDYYTMGWYRLAPGKEREFVAAITRRTGNTYYADSVKGRFTISRDNEKITVYLQMNSLKPEDPAVYYCAATFWPWYSGITYYYWGQGTQVTVSS | high polyreactivity
40 | QVQLVESGGGLVLAGGSLRLSCAASGFIFATYAMGWYRQAPGKERVLVAAISRRGVRTNYADSVKGRFTISRDNAKNTVYLQMNSLKPEDTAVYYSNAQSHYGKIPMYYWGQGTQVTVSS | high polyreactivity
41 | QVQLVESGGGLVLAGGSLRLSCAASGFIFSPYVRGWYRQAPGKDRELVAAISSIGGSTYYADSVKGRFTISRDNAKNTVFLQMNSLKPEDTAVYYCADSVYYYASRYDYWGQVTQVTVSS | low polyreactivity
42 | QVQLVESGGGLVLAGGSLRLSCAASGFTFEKSVMGWYRQAPGNEREFVAAITRSGGRTYYADSVKGRFTISRDNAKNTVYLQMNSLKPEDTAVYFCAAAFSRSDTGGGSWGQGTQVTVSS | high polyreactivity
43 | QVQLVESGGGLVLAGGSLRLSCAASGITFRNYAMGWYRQAPGKEMEFVATISRRAGSTYYADSVKGRFTISRDNAKNTVYLQMNSLKPEDTAVYYCVTYRNWWYDYWGQGTQVTVSS | high polyreactivity

From the nanobody polyreactivity screen of Harvey et al. (2022)
